Measurements reported in IntAct's records for PubMed 34606829.

B1: ALK tyrosine kinase receptor (Homo sapiens), Q9UM73 (parent)
chain: MGAIGLLWLLPLLLSTAAVGSGMGTGQRAGSPAAGPPLQPREPLSYSRLQRKSLAVDFVVPSLFRVYARDLLLPPSSSELKAGRPEARGSLALDCAPLLRLLGPAPGVSWTAGSPAPAEARTLSRVLKGGSVRKLRRAKQLVLELGEEAILEGCVGPPGEAAVGLLQFNLSELFSWWIRQGEGRLRIRLMPEKKASEVGREGRLSAAIRASQPRLLFQIFGTGHSSLESPTNMPSPSPDYFTWNLTWIMKDSFPFLSHRSRYGLECSFDFPCELEYSPPLHDLRNQSWSWRRIPSEEASQMDLLDGPGAERSKEMPRGSFLLLNTSADSKHTILSPWMRSSSEHCTLAVSVHRHLQPSGRYIAQLLPHNEAAREILLMPTPGKHGWTVLQGRIGRPDNPFRVALEYISSGNRSLSAVDFFALKNCSEGTSPGSKMALQSSFTCWNGTVLQLGQACDFHQDCAQGEDESQMCRKLPVGFYCNFEDGFCGWTQGTLSPHTPQWQVRTLKDARFQDHQDHALLLSTTDVPASESATVTSATFPAPIKSSPCELRMSWLIRGVLRGNVSLVLVENKTGKEQGRMVWHVAAYEGLSLWQWMVLPLLDVSDRFWLQMVAWWGQGSRAIVAFDNISISLDCYLTISGEDKILQNTAPKSRNLFERNPNKELKPGENSPRQTPIFDPTVHWLFTTCGASGPHGPTQAQCNNAYQNSNLSVEVGSEGPLKGIQIWKVPATDTYSISGYGAAGGKGGKNTMMRSHGVSVLGIFNLEKDDMLYILVGQQGEDACPSTNQLIQKVCIGENNVIEEEIRVNRSVHEWAGGGGGGGGATYVFKMKDGVPVPLIIAAGGGGRAYGAKTDTFHPERLENNSSVLGLNGNSGAAGGGGGWNDNTSLLWAGKSLQEGATGGHSCPQAMKKWGWETRGGFGGGGGGCSSGGGGGGYIGGNAASNNDPEMDGEDGVSFISPLGILYTPALKVMEGHGEVNIKHYLNCSHCEVDECHMDPESHKVICFCDHGTVLAEDGVSCIVSPTPEPHLPLSLILSVVTSALVAALVLAFSGIMIVYRRKHQELQAMQMELQSPEYKLSKLRTSTIMTDYNPNYCFAGKTSSISDLKEVPRKNITLIRGLGHGAFGEVYEGQVSGMPNDPSPLQVAVKTLPEVCSEQDELDFLMEALIISKFNHQNIVRCIGVSLQSLPRFILLELMAGGDLKSFLRETRPRPSQPSSLAMLDLLHVARDIACGCQYLEENHFIHRDIAARNCLLTCPGPGRVAKIGDFGMARDIYRASYYRKGGCAMLPVKWMPPEAFMEGIFTSKTDTWSFGVLLWEIFSLGYMPYPSKSNQEVLEFVTSGGRMDPPKNCPGPVYRIMTQCWQHQPEDRPNFAIILERIEYCTQDPDVINTALPIEYGPLVEEEEKVPVRPKDPEGVPPLLVSQQAKREEERSPAAPPPLPTTSSGKAAKKPTAAEISVRVPRGPAVEGGHVNMAFSQSNPPSELHKVHGSRNKPTSLWNPTYGSWFTEKPTKKNNPIAKKEPHDRGNLGLEGSCTVPPNVATGRLPGASLLLEPSSLTANMKEVPLFRLRHFPCGNVNYGYQQQGLPLEAATAPGAGHYEDTILKSKNSMNQPGP
partner: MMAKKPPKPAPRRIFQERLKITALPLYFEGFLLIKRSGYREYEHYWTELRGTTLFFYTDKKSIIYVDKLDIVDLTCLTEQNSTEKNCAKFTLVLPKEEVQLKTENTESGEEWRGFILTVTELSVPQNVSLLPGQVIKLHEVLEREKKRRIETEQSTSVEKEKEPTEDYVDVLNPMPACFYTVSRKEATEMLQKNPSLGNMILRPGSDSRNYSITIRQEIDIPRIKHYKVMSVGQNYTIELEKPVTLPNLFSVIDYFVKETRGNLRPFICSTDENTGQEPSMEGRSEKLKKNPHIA
B2: ALK tyrosine kinase receptor (Homo sapiens), Q9UM73 (parent)
chain: B1 chain
partner: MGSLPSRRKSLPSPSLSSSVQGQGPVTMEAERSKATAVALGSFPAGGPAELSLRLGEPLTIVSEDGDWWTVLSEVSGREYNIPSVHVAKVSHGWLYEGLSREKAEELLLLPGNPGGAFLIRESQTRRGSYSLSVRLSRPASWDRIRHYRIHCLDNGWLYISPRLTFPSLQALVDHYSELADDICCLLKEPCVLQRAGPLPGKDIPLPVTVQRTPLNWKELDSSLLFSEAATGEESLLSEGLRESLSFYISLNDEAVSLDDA
B3: ALK tyrosine kinase receptor (Homo sapiens), Q9UM73 (parent)
chain: B1 chain
partner: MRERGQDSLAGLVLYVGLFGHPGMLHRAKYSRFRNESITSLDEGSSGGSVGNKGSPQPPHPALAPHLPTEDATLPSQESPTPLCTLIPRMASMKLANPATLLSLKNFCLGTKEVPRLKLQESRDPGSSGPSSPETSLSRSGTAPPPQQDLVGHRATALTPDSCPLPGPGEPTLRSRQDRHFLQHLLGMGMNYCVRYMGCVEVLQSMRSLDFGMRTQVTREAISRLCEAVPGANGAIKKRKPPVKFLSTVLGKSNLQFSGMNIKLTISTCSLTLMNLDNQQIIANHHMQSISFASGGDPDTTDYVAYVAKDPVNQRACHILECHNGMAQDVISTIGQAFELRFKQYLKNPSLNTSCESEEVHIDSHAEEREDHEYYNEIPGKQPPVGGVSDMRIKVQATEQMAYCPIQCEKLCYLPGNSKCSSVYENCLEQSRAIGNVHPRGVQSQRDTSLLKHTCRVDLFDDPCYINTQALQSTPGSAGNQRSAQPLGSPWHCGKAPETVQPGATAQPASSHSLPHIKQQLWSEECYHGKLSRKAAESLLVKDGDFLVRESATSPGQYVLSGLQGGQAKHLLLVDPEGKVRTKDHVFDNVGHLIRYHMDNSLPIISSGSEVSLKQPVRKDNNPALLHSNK
B4: ALK tyrosine kinase receptor (Homo sapiens), Q9UM73 (parent)
chain: B1 chain
partner: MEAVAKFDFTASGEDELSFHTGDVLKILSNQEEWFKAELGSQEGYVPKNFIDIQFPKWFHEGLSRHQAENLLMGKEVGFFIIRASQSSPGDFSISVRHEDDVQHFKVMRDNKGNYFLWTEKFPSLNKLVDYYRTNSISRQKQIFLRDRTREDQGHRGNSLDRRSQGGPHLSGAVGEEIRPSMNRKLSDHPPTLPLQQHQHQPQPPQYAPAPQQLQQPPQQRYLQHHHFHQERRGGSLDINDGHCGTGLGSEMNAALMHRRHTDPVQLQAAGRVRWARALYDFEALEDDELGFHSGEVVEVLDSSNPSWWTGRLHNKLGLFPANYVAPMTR
B5: ALK tyrosine kinase receptor (Homo sapiens), Q9UM73 (parent)
chain: B1 chain
partner: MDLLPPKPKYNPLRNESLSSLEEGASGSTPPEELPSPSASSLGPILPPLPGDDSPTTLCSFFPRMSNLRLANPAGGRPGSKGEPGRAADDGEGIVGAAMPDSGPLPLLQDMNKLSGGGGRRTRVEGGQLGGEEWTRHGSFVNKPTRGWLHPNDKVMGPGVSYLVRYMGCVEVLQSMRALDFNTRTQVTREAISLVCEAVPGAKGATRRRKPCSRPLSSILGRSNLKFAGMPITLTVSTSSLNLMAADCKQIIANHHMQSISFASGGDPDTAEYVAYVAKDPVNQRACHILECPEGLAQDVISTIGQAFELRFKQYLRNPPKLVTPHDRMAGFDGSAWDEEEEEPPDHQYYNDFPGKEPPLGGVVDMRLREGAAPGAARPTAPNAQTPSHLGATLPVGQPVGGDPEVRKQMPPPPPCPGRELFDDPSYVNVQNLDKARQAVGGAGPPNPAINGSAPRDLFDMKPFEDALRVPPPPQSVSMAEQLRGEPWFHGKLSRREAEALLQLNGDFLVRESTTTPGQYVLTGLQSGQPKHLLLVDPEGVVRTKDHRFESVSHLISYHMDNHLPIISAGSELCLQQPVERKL
B6: ALK tyrosine kinase receptor (Homo sapiens), Q9UM73 (parent)
chain: B1 chain
B7: ALK tyrosine kinase receptor (Homo sapiens), Q9UM73 (parent)
chain: B1 chain
partner: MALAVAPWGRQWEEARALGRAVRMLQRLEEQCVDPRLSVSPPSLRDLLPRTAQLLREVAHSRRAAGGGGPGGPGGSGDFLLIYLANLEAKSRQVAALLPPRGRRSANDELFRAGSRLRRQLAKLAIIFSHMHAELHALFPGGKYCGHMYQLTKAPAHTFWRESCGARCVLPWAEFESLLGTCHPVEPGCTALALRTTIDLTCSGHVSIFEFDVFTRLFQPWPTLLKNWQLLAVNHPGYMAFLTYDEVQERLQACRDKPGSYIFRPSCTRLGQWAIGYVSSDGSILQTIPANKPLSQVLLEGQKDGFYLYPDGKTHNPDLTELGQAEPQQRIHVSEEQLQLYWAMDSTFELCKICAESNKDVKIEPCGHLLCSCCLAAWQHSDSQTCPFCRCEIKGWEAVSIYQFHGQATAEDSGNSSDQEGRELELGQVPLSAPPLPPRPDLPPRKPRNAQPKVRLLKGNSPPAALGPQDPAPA

Variants of: B1
Conditions: with stap1_human STAP1, Q9ULZ2

effect of a mutation on the interaction	Variant
increasing interaction strength	F1245C
decreasing interaction strength	I1250T
increasing interaction strength	L1196M

Variants of: B2
Conditions: with slap2_human SLA2, Q9H6Q3

effect of a mutation on the interaction	Variant
increasing interaction strength	F1245C
increasing interaction strength	L1196M
decreasing interaction strength	I1250T

Variants of: B3
Conditions: with shc4_human SHC4, Q6S5L8

effect of a mutation on the interaction	Variant
increasing interaction strength	L1196M
increasing interaction strength	F1245C
decreasing interaction strength	I1250T

Variants of: B4
Conditions: with grap2_human GRAP2, O75791

effect of a mutation on the interaction	Variant
increasing interaction strength	F1245C
decreasing interaction strength	I1250T
increasing interaction strength	L1196M

Variants of: B5
Conditions: with shc1_human SHC1, P29353

effect of a mutation on the interaction	Variant
increasing interaction strength	L1196M
increasing interaction strength	F1245C
decreasing interaction strength	I1250T

Variants of: B6
Conditions: with abl1_human ABL1, P00519
Chain of abl1_human ABL1, P00519 (P00519 whole entry): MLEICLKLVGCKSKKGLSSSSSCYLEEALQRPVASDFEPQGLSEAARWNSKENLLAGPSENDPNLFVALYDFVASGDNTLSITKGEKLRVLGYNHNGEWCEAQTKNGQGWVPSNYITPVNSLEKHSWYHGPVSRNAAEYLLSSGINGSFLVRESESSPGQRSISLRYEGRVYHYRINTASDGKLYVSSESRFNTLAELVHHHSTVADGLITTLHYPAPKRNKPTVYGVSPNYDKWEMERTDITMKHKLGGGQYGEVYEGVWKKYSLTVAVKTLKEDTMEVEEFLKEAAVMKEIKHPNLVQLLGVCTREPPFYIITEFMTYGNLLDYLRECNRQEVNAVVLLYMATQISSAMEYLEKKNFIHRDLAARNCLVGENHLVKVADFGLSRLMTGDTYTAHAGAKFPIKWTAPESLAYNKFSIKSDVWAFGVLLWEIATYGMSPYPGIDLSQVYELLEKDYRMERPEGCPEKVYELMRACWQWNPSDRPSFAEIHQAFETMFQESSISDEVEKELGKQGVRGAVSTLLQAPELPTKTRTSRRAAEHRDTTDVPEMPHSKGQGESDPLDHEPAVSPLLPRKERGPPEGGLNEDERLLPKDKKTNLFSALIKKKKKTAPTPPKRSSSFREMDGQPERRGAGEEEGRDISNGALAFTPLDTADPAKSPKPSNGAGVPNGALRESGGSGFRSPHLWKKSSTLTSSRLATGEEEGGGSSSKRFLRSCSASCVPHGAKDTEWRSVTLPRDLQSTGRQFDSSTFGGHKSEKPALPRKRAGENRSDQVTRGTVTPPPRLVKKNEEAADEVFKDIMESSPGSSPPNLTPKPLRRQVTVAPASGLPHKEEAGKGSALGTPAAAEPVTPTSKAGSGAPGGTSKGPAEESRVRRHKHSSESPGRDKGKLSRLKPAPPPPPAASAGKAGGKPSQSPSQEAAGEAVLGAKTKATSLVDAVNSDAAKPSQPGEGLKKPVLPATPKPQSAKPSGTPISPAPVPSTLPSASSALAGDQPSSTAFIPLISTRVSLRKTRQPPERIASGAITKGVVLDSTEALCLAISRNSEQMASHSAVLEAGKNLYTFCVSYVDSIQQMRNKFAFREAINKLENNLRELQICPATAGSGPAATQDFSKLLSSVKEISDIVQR

effect of a mutation on the interaction	Variant
increasing interaction strength	F1245C
decreasing interaction strength	I1250T
increasing interaction strength	L1196M

Variants of: B6
Conditions: with frk_human FRK

effect of a mutation on the interaction	Variant
increasing interaction strength	F1245C
decreasing interaction strength	I1250T
increasing interaction strength	L1196M

Variants of: B6
Conditions: with sh24b_human SH2D4B

effect of a mutation on the interaction	Variant
increasing interaction strength	F1245C
decreasing interaction strength	I1250T
increasing interaction strength	L1196M

Variants of: B6
Conditions: with srms_human SRMS

effect of a mutation on the interaction	Variant
increasing interaction strength	F1245C
decreasing interaction strength	I1250T
increasing interaction strength	L1196M

Variants of: B6
Conditions: with sta5b_human STAT5B

effect of a mutation on the interaction	Variant
increasing interaction strength	F1245C
decreasing interaction strength	I1250T
increasing interaction strength	L1196M

Variants of: B6
Conditions: with syk_human KARS1, Q15046
Chain of syk_human KARS1, Q15046 (Q15046 whole entry, looked up): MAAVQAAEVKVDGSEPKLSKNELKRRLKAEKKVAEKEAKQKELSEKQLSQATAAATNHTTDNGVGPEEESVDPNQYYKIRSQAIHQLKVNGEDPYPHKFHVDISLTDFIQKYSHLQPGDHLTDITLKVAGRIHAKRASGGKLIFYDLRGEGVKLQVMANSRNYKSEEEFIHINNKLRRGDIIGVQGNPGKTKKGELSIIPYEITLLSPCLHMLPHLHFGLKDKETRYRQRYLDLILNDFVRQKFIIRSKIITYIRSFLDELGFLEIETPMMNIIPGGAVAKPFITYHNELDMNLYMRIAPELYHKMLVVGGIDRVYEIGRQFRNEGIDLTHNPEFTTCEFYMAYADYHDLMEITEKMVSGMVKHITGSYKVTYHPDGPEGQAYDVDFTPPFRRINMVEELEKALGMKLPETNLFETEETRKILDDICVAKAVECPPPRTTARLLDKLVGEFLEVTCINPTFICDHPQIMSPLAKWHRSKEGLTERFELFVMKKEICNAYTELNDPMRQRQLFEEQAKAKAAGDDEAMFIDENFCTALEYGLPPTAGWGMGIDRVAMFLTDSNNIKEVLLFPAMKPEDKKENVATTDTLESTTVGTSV

effect of a mutation on the interaction	Variant
increasing interaction strength	F1245C
decreasing interaction strength	I1250T
increasing interaction strength	L1196M

Variants of: B6
Conditions: with crk_human CRK

effect of a mutation on the interaction	Variant
increasing interaction strength	F1245C
decreasing interaction strength	I1250T
increasing interaction strength	L1196M

Variants of: B6
Conditions: with fgr_human FGR

effect of a mutation on the interaction	Variant
increasing interaction strength	F1245C
decreasing interaction strength	I1250T
increasing interaction strength	L1196M

Variants of: B6
Conditions: with grb14_human GRB14, Q14449
Chain of grb14_human GRB14, Q14449 (Q14449 whole entry): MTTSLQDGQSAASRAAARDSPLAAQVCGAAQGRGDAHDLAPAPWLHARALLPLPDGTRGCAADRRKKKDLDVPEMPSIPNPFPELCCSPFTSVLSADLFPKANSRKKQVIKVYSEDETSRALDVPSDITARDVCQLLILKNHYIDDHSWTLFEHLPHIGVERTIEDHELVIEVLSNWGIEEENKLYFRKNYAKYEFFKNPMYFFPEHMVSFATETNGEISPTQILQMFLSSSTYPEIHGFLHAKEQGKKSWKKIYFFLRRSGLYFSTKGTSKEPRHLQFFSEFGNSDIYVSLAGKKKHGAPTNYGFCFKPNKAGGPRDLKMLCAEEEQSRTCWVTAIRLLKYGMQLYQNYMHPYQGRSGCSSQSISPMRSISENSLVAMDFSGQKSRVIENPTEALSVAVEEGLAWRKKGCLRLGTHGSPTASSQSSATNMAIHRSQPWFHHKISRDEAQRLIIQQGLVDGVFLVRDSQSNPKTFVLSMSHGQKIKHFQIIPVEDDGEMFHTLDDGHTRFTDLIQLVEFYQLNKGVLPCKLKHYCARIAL

effect of a mutation on the interaction	Variant
increasing interaction strength	F1245C
decreasing interaction strength	I1250T
increasing interaction strength	L1196M

Variants of: B6
Conditions: with hck_human HCK

effect of a mutation on the interaction	Variant
increasing interaction strength	F1245C
decreasing interaction strength	I1250T
increasing interaction strength	L1196M

Variants of: B6
Conditions: with lyn_human LYN

effect of a mutation on the interaction	Variant
increasing interaction strength	F1245C
decreasing interaction strength	I1250T
increasing interaction strength	L1196M

Variants of: B6
Conditions: with nck2_human NCK2, O43639
Chain of nck2_human NCK2, O43639 (O43639 whole entry): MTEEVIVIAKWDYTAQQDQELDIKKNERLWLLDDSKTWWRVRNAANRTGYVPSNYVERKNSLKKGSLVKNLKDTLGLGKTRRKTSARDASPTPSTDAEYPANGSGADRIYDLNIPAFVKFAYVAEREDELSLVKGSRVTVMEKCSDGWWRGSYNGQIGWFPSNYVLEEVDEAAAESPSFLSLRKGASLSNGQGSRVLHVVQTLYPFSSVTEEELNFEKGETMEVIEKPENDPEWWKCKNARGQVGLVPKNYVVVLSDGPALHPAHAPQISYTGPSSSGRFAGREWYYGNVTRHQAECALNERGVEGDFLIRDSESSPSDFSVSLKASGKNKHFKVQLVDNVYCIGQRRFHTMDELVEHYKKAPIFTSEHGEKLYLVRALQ

effect of a mutation on the interaction	Variant
increasing interaction strength	F1245C
decreasing interaction strength	I1250T
increasing interaction strength	L1196M

Variants of: B6
Conditions: with sh2b1_human SH2B1, Q9NRF2

effect of a mutation on the interaction	Variant
increasing interaction strength	F1245C
decreasing interaction strength	I1250T
increasing interaction strength	L1196M

Variants of: B6
Conditions: with shb_human SHB

effect of a mutation on the interaction	Variant
increasing interaction strength	F1245C
decreasing interaction strength	I1250T
increasing interaction strength	L1196M

Variants of: B6
Conditions: with socs3_human SOCS3, O14543
Chain of socs3_human SOCS3, O14543 (O14543 whole entry): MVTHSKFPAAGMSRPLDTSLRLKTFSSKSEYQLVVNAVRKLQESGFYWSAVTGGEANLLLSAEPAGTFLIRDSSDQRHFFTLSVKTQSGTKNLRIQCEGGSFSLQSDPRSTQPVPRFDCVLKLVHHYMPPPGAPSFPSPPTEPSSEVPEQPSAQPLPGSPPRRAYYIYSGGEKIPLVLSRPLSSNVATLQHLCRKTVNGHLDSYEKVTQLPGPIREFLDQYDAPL

effect of a mutation on the interaction	Variant
increasing interaction strength	F1245C
decreasing interaction strength	I1250T
increasing interaction strength	L1196M

Variants of: B6
Conditions: with stat2_human STAT2, P52630
Chain of stat2_human STAT2, P52630 (P52630 whole entry): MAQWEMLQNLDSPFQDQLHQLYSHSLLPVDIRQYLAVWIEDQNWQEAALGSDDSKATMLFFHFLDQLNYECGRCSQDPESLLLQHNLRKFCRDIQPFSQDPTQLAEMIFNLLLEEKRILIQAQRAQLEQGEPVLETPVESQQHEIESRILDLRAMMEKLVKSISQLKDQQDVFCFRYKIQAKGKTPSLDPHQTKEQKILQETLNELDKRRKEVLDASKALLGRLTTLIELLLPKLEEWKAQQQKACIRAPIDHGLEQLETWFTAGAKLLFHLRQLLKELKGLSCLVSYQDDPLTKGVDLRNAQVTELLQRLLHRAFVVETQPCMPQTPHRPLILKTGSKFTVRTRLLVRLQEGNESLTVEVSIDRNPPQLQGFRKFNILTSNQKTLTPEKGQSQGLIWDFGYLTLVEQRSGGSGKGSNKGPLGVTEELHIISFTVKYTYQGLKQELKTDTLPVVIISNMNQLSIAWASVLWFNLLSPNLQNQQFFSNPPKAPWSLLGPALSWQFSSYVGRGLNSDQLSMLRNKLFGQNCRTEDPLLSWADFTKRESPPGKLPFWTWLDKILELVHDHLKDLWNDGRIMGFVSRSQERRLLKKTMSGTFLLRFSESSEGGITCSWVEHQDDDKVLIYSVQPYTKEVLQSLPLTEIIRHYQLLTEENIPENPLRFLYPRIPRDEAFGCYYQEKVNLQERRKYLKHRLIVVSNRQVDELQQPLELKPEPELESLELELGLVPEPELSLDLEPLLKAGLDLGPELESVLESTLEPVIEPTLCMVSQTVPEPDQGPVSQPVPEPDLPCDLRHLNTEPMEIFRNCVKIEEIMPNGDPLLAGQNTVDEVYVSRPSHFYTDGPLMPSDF

effect of a mutation on the interaction	Variant
increasing interaction strength	F1245C
decreasing interaction strength	I1250T
increasing interaction strength	L1196M

Variants of: B6
Conditions: with zap70_human ZAP70, P43403
Chain of zap70_human ZAP70, P43403 (P43403 whole entry): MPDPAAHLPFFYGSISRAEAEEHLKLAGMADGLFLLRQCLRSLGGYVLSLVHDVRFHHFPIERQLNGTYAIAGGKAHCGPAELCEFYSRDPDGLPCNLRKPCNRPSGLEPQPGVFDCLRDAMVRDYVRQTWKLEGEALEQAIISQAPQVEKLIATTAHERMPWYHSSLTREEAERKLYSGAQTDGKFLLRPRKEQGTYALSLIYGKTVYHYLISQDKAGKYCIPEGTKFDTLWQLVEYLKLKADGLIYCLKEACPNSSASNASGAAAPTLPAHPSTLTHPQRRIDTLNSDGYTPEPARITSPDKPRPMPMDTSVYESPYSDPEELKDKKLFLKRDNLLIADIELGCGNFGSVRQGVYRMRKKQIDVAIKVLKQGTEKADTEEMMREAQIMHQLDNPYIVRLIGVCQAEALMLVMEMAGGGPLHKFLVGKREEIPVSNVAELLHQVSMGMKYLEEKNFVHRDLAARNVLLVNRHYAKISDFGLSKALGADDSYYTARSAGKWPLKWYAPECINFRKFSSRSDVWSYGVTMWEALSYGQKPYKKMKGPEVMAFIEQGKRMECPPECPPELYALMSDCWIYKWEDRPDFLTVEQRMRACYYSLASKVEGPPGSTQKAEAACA

effect of a mutation on the interaction	Variant
increasing interaction strength	F1245C
decreasing interaction strength	I1250T
increasing interaction strength	L1196M

Variants of: B6
Conditions: with rack1_human RACK1, P63244

effect of a mutation on the interaction	Variant
increasing interaction strength	F1245C
decreasing interaction strength	I1250T
increasing interaction strength	L1196M

Variants of: B7
Conditions: with cblc_human CBLC

effect of a mutation on the interaction	Variant
increasing interaction strength	F1245C
increasing interaction strength	L1196M
decreasing interaction strength	I1250T
